# Experimental data reported in patent US20150376674.
# Target: tetranectin-apolipoprotein A-I fusion polypeptide precursor polypeptide
protein,measurement,value
IgA-protease protein from Neisseria gonorrhoeae (protein) ALVRDDVDYQIFRDFAENKGKFFVGATDLSVKNKRGQNIGNALSNVPMIDFSVADVNKRIATVVDPQYAVSVKHAKAEVHTFYYGQYNGHNDVADKENEYRVVEQNNYEPHKAWGASNLGRLEDYNMARFNKFVTEVAPIAPTDAGGGLDTYKDKNRFSSFVRIGAGRQLVYEKGVYHQEGNEKGYDLRDLSQAYRYAIAGTPYKDINIDQTMNTEGLIGFGNHNKQYSAEELKQALSQDALTNYGVLGDSGSPLFAFDKQKNQWVFLGTYDYWAGYGKKSWQEWNIYKKEFADKIKQHDNAGTVKGNGEHHWKTTGTNSHIGSTAVRLANNEGDANNGQNVTFEDNGTLVLNQNINQGAGGLFFKGDYTVKGANNDITWLGAGIDVADGKKVVWQVKNPNGDRLAKIGKGTLEINGTGVNQGQLKVGDGTVILNQKADADKKVQAFSQVGIVSGRGTLVLNSSNQINPDNLYFGFRGGRLDANGNDLTFEHIRNVDEGARIVNHNTDHASTITLTGKSLITNPNSLSVHSIQNDYDEDDYSYYYRPRRPIPQGKDLYYKNYRYYALKSGGRLNAPMPENGVAENNDWIFMGYTQEEARKNAMNHKNNRRIGDFGGFFDEENGKGHNGALNLNFNGKSAQKRFLLTGGANLNGKISVTQGNVLLSGRPTPHARDFVNKSSARKDAHFSKNNEVVFEDDWINRTFKAAEIAVNQSASFSSGRNVSDITANITATDNAKVNLGYKNGDEVCVRSDYTGYVTCNTGNLSDKALNSFDATRINGNVNLNQNAALVLGKAALWGKIQGQGNSRVSLNQHSKWHLTGDSQVHNLSLADSHIHLNNASDAQSANKYHTIKINHLSGNGHFHYLTDLAKNLGDKVLVKESASGHYQLHVQNKTGEPNQEGLDLFDASSVQDRSRLFVSLANHYVDLGALRYTIKTENGITRLYNPYAGNGRPVKPAP,Cleavage activity,Cleavage activity was in the expected range.
